Patent US12679878B2, “CRF2 receptor agonists and their use in therapy” (SANOFI, priority 2020, dated 2026)
Starred links: 1 amine or outer side, 2 acyl side, 3 side chain; linkers in the order of their positions; H or OH if unused. Non-standard residues stand in square brackets, D forms with d. Groups on a side chain read outwards from the residue. No end group written: not given here. *: point of attachment. C18 diacid = O=C(O)CCCCCCCCCCCCCCCCC(=O)*; γGlu = O=C(O)[C@H](CCC(=O)[*:2])N[*:1]; AEEA = NCCOCCOCC(=O)O; Aib = CC(C)(N)C(=O)O

B1: SEQ ID NO: 50 (peptide)
peptide: IVLSLDVPTKLK([AEEA-AEEA-γGlu-C18 diacid])QILLKQERQR[Aib]ERQQAETNVRILERV-NH2
modifications: N-terminus assumed
SMILES: CC[C@H](C)[C@H](N)C(=O)N[C@H](C(=O)N[C@@H](CC(C)C)C(=O)N[C@@H](CO)C(=O)N[C@@H](CC(C)C)C(=O)N[C@@H](CC(=O)O)C(=O)N[C@H](C(=O)N1CCC[C@H]1C(=O)N[C@H](C(=O)N[C@@H](CCCCN)C(=O)N[C@@H](CC(C)C)C(=O)N[C@@H](CCCCNC(=O)COCCOCCNC(=O)COCCOCCNC(=O)CC[C@H](NC(=O)CCCCCCCCCCCCCCCCC(=O)O)C(=O)O)C(=O)N[C@@H](CCC(N)=O)C(=O)N[C@H](C(=O)N[C@@H](CC(C)C)C(=O)N[C@@H](CC(C)C)C(=O)N[C@@H](CCCCN)C(=O)N[C@@H](CCC(N)=O)C(=O)N[C@@H](CCC(=O)O)C(=O)N[C@@H](CCCNC(=N)N)C(=O)N[C@@H](CCC(N)=O)C(=O)N[C@@H](CCCNC(=N)N)C(=O)NC(C)(C)C(=O)N[C@@H](CCC(=O)O)C(=O)N[C@@H](CCCNC(=N)N)C(=O)N[C@@H](CCC(N)=O)C(=O)N[C@@H](CCC(N)=O)C(=O)N[C@@H](C)C(=O)N[C@@H](CCC(=O)O)C(=O)N[C@H](C(=O)N[C@@H](CC(N)=O)C(=O)N[C@H](C(=O)N[C@@H](CCCNC(=N)N)C(=O)N[C@H](C(=O)N[C@@H](CC(C)C)C(=O)N[C@@H](CCC(=O)O)C(=O)N[C@@H](CCCNC(=N)N)C(=O)N[C@H](C(N)=O)C(C)C)[C@@H](C)CC)C(C)C)[C@@H](C)O)[C@@H](C)CC)[C@@H](C)O)C(C)C)C(C)C
B2: SEQ ID NO: 51 (peptide)
peptide: FTLSLDVPTKIK([AEEA-AEEA-γGlu-C18 diacid])QILLKQQKQKKERQQAEKNKQLLEQI-NH2
modifications: N-terminus assumed
SMILES: CC[C@H](C)[C@H](NC(=O)[C@H](CCC(N)=O)NC(=O)[C@H](CCC(=O)O)NC(=O)[C@H](CC(C)C)NC(=O)[C@H](CC(C)C)NC(=O)[C@H](CCC(N)=O)NC(=O)[C@H](CCCCN)NC(=O)[C@H](CC(N)=O)NC(=O)[C@H](CCCCN)NC(=O)[C@H](CCC(=O)O)NC(=O)[C@H](C)NC(=O)[C@H](CCC(N)=O)NC(=O)[C@H](CCC(N)=O)NC(=O)[C@H](CCCNC(=N)N)NC(=O)[C@H](CCC(=O)O)NC(=O)[C@H](CCCCN)NC(=O)[C@H](CCCCN)NC(=O)[C@H](CCC(N)=O)NC(=O)[C@H](CCCCN)NC(=O)[C@H](CCC(N)=O)NC(=O)[C@H](CCC(N)=O)NC(=O)[C@H](CCCCN)NC(=O)[C@H](CC(C)C)NC(=O)[C@H](CC(C)C)NC(=O)[C@@H](NC(=O)[C@H](CCC(N)=O)NC(=O)[C@H](CCCCNC(=O)COCCOCCNC(=O)COCCOCCNC(=O)CC[C@H](NC(=O)CCCCCCCCCCCCCCCCC(=O)O)C(=O)O)NC(=O)[C@@H](NC(=O)[C@H](CCCCN)NC(=O)[C@@H](NC(=O)[C@@H]1CCCN1C(=O)[C@@H](NC(=O)[C@H](CC(=O)O)NC(=O)[C@H](CC(C)C)NC(=O)[C@H](CO)NC(=O)[C@H](CC(C)C)NC(=O)[C@@H](NC(=O)[C@@H](N)Cc1ccccc1)[C@@H](C)O)C(C)C)[C@@H](C)O)[C@@H](C)CC)[C@@H](C)CC)C(N)=O
B3: SEQ ID NO: 52 (peptide)
peptide: FTLSLDVPTKIK([AEEA-AEEA-γGlu-C18 diacid])QILLKQQKQKKERQQAEKNKQLLERV-NH2
modifications: N-terminus assumed
SMILES: CC[C@H](C)[C@H](NC(=O)[C@H](CCC(N)=O)NC(=O)[C@H](CCCCNC(=O)COCCOCCNC(=O)COCCOCCNC(=O)CC[C@H](NC(=O)CCCCCCCCCCCCCCCCC(=O)O)C(=O)O)NC(=O)[C@@H](NC(=O)[C@H](CCCCN)NC(=O)[C@@H](NC(=O)[C@@H]1CCCN1C(=O)[C@@H](NC(=O)[C@H](CC(=O)O)NC(=O)[C@H](CC(C)C)NC(=O)[C@H](CO)NC(=O)[C@H](CC(C)C)NC(=O)[C@@H](NC(=O)[C@@H](N)Cc1ccccc1)[C@@H](C)O)C(C)C)[C@@H](C)O)[C@@H](C)CC)C(=O)N[C@@H](CC(C)C)C(=O)N[C@@H](CC(C)C)C(=O)N[C@@H](CCCCN)C(=O)N[C@@H](CCC(N)=O)C(=O)N[C@@H](CCC(N)=O)C(=O)N[C@@H](CCCCN)C(=O)N[C@@H](CCC(N)=O)C(=O)N[C@@H](CCCCN)C(=O)N[C@@H](CCCCN)C(=O)N[C@@H](CCC(=O)O)C(=O)N[C@@H](CCCNC(=N)N)C(=O)N[C@@H](CCC(N)=O)C(=O)N[C@@H](CCC(N)=O)C(=O)N[C@@H](C)C(=O)N[C@@H](CCC(=O)O)C(=O)N[C@@H](CCCCN)C(=O)N[C@@H](CC(N)=O)C(=O)N[C@@H](CCCCN)C(=O)N[C@@H](CCC(N)=O)C(=O)N[C@@H](CC(C)C)C(=O)N[C@@H](CC(C)C)C(=O)N[C@@H](CCC(=O)O)C(=O)N[C@@H](CCCNC(=N)N)C(=O)N[C@H](C(N)=O)C(C)C
B4: SEQ ID NO: 53 (peptide)
peptide: FTLSLDVPTKIK([AEEA-AEEA-γGlu-C18 diacid])QILLKQQKQKKERQQAETNKQLLERV-NH2
modifications: N-terminus assumed
SMILES: CC[C@H](C)[C@H](NC(=O)[C@H](CCC(N)=O)NC(=O)[C@H](CCCCNC(=O)COCCOCCNC(=O)COCCOCCNC(=O)CC[C@H](NC(=O)CCCCCCCCCCCCCCCCC(=O)O)C(=O)O)NC(=O)[C@@H](NC(=O)[C@H](CCCCN)NC(=O)[C@@H](NC(=O)[C@@H]1CCCN1C(=O)[C@@H](NC(=O)[C@H](CC(=O)O)NC(=O)[C@H](CC(C)C)NC(=O)[C@H](CO)NC(=O)[C@H](CC(C)C)NC(=O)[C@@H](NC(=O)[C@@H](N)Cc1ccccc1)[C@@H](C)O)C(C)C)[C@@H](C)O)[C@@H](C)CC)C(=O)N[C@@H](CC(C)C)C(=O)N[C@@H](CC(C)C)C(=O)N[C@@H](CCCCN)C(=O)N[C@@H](CCC(N)=O)C(=O)N[C@@H](CCC(N)=O)C(=O)N[C@@H](CCCCN)C(=O)N[C@@H](CCC(N)=O)C(=O)N[C@@H](CCCCN)C(=O)N[C@@H](CCCCN)C(=O)N[C@@H](CCC(=O)O)C(=O)N[C@@H](CCCNC(=N)N)C(=O)N[C@@H](CCC(N)=O)C(=O)N[C@@H](CCC(N)=O)C(=O)N[C@@H](C)C(=O)N[C@@H](CCC(=O)O)C(=O)N[C@H](C(=O)N[C@@H](CC(N)=O)C(=O)N[C@@H](CCCCN)C(=O)N[C@@H](CCC(N)=O)C(=O)N[C@@H](CC(C)C)C(=O)N[C@@H](CC(C)C)C(=O)N[C@@H](CCC(=O)O)C(=O)N[C@@H](CCCNC(=N)N)C(=O)N[C@H](C(N)=O)C(C)C)[C@@H](C)O

Biological target: human corticotropin-releasing factor 2α (CRF2 α receptor) (human), Q13324
Experiment: cell-based or functional assay

Sequence of human corticotropin-releasing factor 2α (CRF2 α receptor) (human), Q13324 (Q13324 20-411): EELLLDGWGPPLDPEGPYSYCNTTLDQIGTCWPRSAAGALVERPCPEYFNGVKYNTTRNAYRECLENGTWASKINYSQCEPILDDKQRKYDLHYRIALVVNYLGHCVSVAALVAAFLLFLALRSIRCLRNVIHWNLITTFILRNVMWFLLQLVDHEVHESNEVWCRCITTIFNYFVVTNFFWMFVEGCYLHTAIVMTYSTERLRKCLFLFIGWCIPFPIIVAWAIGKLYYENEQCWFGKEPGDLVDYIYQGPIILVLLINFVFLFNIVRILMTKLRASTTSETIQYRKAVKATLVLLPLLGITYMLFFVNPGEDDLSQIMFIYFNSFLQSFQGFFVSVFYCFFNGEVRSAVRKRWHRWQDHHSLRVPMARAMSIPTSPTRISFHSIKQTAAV

Q: How did the EC50 [nM], 0% HSA turn out when B1 was run?
A: 17.2 nM

Q: B2 was tested. Which EC50 [nM], 0% HSA did it give?
A: 0.32 nM

Q: What about the EC50 [nM], 0.1% HSA of the same binder?
A: 21.4 nM

Q: For B3, which EC50 [nM], 0% HSA is on record?
A: 0.7 nM

Q: And the EC50 [nM], 0.1% HSA?
A: 45.8 nM

Q: Which EC50 [nM], 0% HSA does the source give for B4 here?
A: 1.01 nM

Q: What about the EC50 [nM], 0.1% HSA of the same binder?
A: 55.1 nM
